Where no end group is shown, it is not given here. The star is where a group is joined. 5FAM = O=C1OC2(c3ccc(O)cc3Oc3cc(O)ccc32)c2ccc(C(=O)*)cc21; Ahx = NCCCCCC(=O)O
T1: 6xHis-SUMO-TRAF3 (residues 341-568) (human, UniProt Q13114 341-568)
T1 construct: also called SUMO-TRAF-C of TRAF3; TRAF3 TRAF-C domain
T1 sequence (looked up): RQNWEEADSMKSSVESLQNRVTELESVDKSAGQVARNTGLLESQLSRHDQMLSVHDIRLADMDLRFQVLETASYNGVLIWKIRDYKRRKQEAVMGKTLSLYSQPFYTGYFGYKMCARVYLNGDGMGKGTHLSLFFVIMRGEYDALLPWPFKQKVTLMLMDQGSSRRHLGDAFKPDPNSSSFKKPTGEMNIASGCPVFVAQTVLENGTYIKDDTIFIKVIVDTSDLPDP

T2: 6xHis-SUMO-TRAF2 (residues 315-501) (human, UniProt Q12933 315-501)
T2 construct: also called SUMO-TRAF-C of TRAF2; TRAF2 TRAF-C domain
T2 sequence (looked up): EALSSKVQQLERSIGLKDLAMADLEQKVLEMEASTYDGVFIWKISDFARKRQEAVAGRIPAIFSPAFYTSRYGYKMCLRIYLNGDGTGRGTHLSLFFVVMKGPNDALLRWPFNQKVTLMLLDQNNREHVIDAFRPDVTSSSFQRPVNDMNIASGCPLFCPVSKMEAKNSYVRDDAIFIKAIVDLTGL


Assays:
crystal structure = target: the molecule itself; assay: crystal structure
[1] = target: 16-aa ORF3a peptide (SARS-CoV-2 ORF3a residues 30-45) (SARS-CoV-2); assay: crystal structure; settings: both partners purified
[2] = target: T1, 6xHis-SUMO-TRAF3 (residues 341-568); assay: fluorescence polarisation; settings: both partners purified
[3] = target: T2, 6xHis-SUMO-TRAF2 (residues 315-501); assay: fluorescence polarisation; settings: both partners purified

Binder | stoichiometry N (crystal structure) | binding result [1] | Kd [2] [µM] | Kd [3] [µM]
TRAF2 TRAF-C domain (human TRAF2 residues 315-501), tag cleaved, for crystallization (domain or fragment, UniProt Q12933 315-501, looked up) EALSSKVQQLERSIGLKDLAMADLEQKVLEMEASTYDGVFIWKISDFARKRQEAVAGRIPAIFSPAFYTSRYGYKMCLRIYLNGDGTGRGTHLSLFFVVMKGPNDALLRWPFNQKVTLMLLDQNNREHVIDAFRPDVTSSSFQRPVNDMNIASGCPLFCPVSKMEAKNSYVRDDAIFIKAIVDLTGL | 3 | binds |  | 
{5FAM-Ahx}-PIQAS (also called 5-FAM-ORF3a peptide; fluorescently labeled PIQAS peptide) [5-FAM-Ahx-PIQAS peptide (5-aa ORF3a peptide, residues 36-40)] |  |  | 172 | 192

Reference: publication PMC10675646 (Viruses, 2023)
